Results published in the supplement of paper PMC9732359.
± gives the uncertainty stated by the source.

Assay: protein stability index of a GFP-peptide fusion (yeast GPS) (PSI 1-4); higher = more stable; sorted into four equal gates, so the index is relative within each strain
Settings: pdr5∆
Outline: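 Tiled 17-residue yeast protein peptides were fused downstream of GFP in a plasmid that also expresses Cherry, and the pooled library was carried in yeast. Mid-log cultures in leucine-free medium were sorted into four equal gates by GFP/Cherry fluorescence ratio, and plasmids from each gate were PCR-amplified and Illumina-sequenced, with reads assigned to strains by barcodes. The protein stability index for each peptide was each gate's read frequency times its gate number, summed.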

Point of comparison: LITKANKVSYYGNPTSK [RTT102], protein stability index 1.89 ± 0.042. Against it:
- LIQSTEFPSITSSVILG [YOR098C/NUP1] — higher, 3.44 ± 0.11
- LIRRLVRVGVLSEDKKK [RPS9A] — lower, 1.45 ± 0.29
- LISNLLFSKNRNEVLES [YCS4] — higher, 2.68 ± 0.06

Same assay, conditions: san1∆

Point of comparison: LFLNNFVSRIPIMFQDF [IRR1], protein stability index 1.7 ± 0.067. Against it:
- KTLTGKTITLEVESSDT [RPS31] — higher, 2.43 ± 0.065
- KTLVALEKQEDYIDNLV [RPC37] — higher, 2.97 ± 0.16
- KTNFQDVILDYQTKKFY [REC8] — lower, 1.16 ± 0.096
- KTWEKVTLDFGNIFADL [SMC2] — higher, 3.39 ± 0.1
- KVAKRTKIKPFIKVVNY [RPL27A] — higher, 2.86 ± 0.06
- KVGYTLPSHIISTSDVT [RPL4A] — higher, 2.58 ± 0.039
- KVKPIRGFCQRLKGKQG [RPO31] — higher, 2.79 ± 0.13
- KVPDSTYDMVGGLTKQI [RPT6] — within error, 1.93 ± 0.22
- KVQDAIEEEIFDDSSRI [LIN1] — higher, 3.16 ± 0.081
- KVQISKIPILAQHESFL [RPN9] — higher, 2.16 ± 0.075
- KVTKIWSKESNYDCKVI [PRP28] — higher, 2.61 ± 0.051
- KVTLNKETQQYELEFDT [BRR2] — higher, 3.15 ± 0.035
- KVTSYDITGDIRNEGSD [ISW2] — higher, 3.21 ± 0.14
- KVVEFAITHMIDALGTE [SCL1] — higher, 2.27 ± 0.079
- KVVKAIRIYFTEKDDNK [NUT1] — higher, 2.55 ± 0.12
- KWPEYVRLQRQKKILSI [RPL8B] — lower, 1.14 ± 0.098
- KYKLISRIVEIFALCIY [YML103C/NUP188] — higher, 1.86 ± 0.076
- KYLLTQRVFKPVDITMM [PRP8] — higher, 3.02 ± 0.079
- KYPARRIHTNDNDIMNL [SSN3] — higher, 2.98 ± 0.077
- KYYLEESNVNDSDMLTK [NUT1] — higher, 3.31 ± 0.07
- LAAERKVTSTLLEQDTS [PRE9] — higher, 2.65 ± 0.082
- LADRDEFIQDSAARGLS [ECM29] — lower, 1.2 ± 0.14
- LAFYQVTPEEDEEEDEE [RPL22A] — higher, 3.61 ± 0.06
- LAGKRGPKSGSTMGTPT [PGD1] — higher, 2.6 ± 0.096
- LAIKDSKKRFAAIWTLC [RPO21] — within error, 1.8 ± 0.072
- LAKILARSIDVEKGVNP [ECM29] — lower, 1.4 ± 0.17
- LALGCHFQDQKNKKIEV [POP7] — higher, 2.92 ± 0.12
- LALQRGATVFVNHLLLF [DPB4] — lower, 1.25 ± 0.083
- LALTTLSEPLIKIGIRV [YCG1] — within error, 1.74 ± 0.065
- LANYLTSALSELSGLIS [QCR2] — higher, 1.84 ± 0.064
- LASSFVNGFLNLGYCND [RPN1] — higher, 3.27 ± 0.049
- LATAHIYLSRFLIKASV [SSN8] — lower, 1.31 ± 0.16
- LATLLGHNDWVSQVRVV [ASC1] — higher, 1.89 ± 0.1
- LAYSKIVNGQTFSYVDS [YMR129W/POM152] — higher, 2.53 ± 0.054
- LCDLFVNGSITDQLIQN [NUT1] — within error, 1.76 ± 0.21
- LCRQGHNMLNLLIHRKG [PRP8] — higher, 2.31 ± 0.091
- LCSMLQEASQVTFIFGE [MED11] — higher, 2.61 ± 0.055
- LCVLWDDLQSSVIPEVD [YCG1] — higher, 2.01 ± 0.087
- LDCDGGFIDASCIAVMA [RRP45] — higher, 2.67 ± 0.071
- LDERFASRVALNKEKLG [IRR1] — within error, 1.57 ± 0.18
- LDESSEQKNTAKEELNG [YIL149C/MLP2] — higher, 3.21 ± 0.072
- LDNKGSGEDAEEELWNS [YIL149C/MLP2] — higher, 3.16 ± 0.093
- LDNLTEDPNSAAFDEVE [DIS3] — higher, 3.22 ± 0.041
- LDRPEYLKKREAGEVKD [RPL10] — higher, 3.35 ± 0.044
- LDTFIKIDGNPDELIKA [PRE5] — higher, 3.31 ± 0.071
- LEDLKDVYASKVRLNAS [PRP8] — higher, 2.47 ± 0.047
- LEDLKNTKEIAVDLEHH [RRP6] — higher, 2.48 ± 0.056
- LEEHKNHLDELQKKFVT [SMC1] — higher, 2.88 ± 0.059
- LEEVEGSCTGKFGYILC [RPB7] — higher, 2.1 ± 0.066
- LEIALFKYRKARLEPGT [RPO31] — higher, 2.37 ± 0.12
- LEILIVTKDGVRKEFYE [PRE7] — higher, 3.14 ± 0.043
- LEIRNKICSSEMINEQK [RGR1] — higher, 3.01 ± 0.15
- LEKTSRILNFFDKNTKT [YMR153W/NUP53] — higher, 2.75 ± 0.089
- LELNLSVLHSWVQLVQI [YJL039C/NUP192] — higher, 2.11 ± 0.12
- LENKENGLLNEISRLKT [SMC2] — higher, 3.15 ± 0.094
- LESDFVTGASQFQRLAP [PRE2] — higher, 3.17 ± 0.086
- LESDVNIALVSKLRNNI [SRP54] — higher, 2.74 ± 0.052
- LEYNVALNDVYLDADVA [YML031W/NDC1] — higher, 3.05 ± 0.12
- LFAESHDVLQKLNTLSE [YML103C/NUP188] — higher, 3.06 ± 0.065
- LFDAAFYMKKDAVEGVS [RPO31] — higher, 3.31 ± 0.076
- LFDTYHASKAIGLPRHS [RRP6] — higher, 2.34 ± 0.081
- LFKKITNVNPSKNFNVI [YML103C/NUP188] — higher, 2.73 ± 0.042
- LFMKSLIENCKKRNMPL [SWI1] — higher, 2.83 ± 0.045
- LFNNHLNGILADEMGLG [SNF2] — higher, 3.28 ± 0.068
- LFQDGSASLHTRSLKYG [RRP4] — higher, 2.59 ± 0.1
- LFQNVPEQGEEPMKQLN [YAR002W/NUP60] — higher, 3.51 ± 0.12
- LFWKVKEEEGSFNNVIG [PRE2] — higher, 3.21 ± 0.071
- LGCTLVTLLANVRALYM [RMP1] — higher, 2.74 ± 0.16
- LGHPDNYIPGNPLVTPA [COB] — higher, 2.93 ± 0.075
- LGIKVAELTGDSRLSRK [BRR2] — higher, 2.67 ± 0.16
- LGITGLATDVTTLNEMF [PUP3] — higher, 2.24 ± 0.16
- LGLCLVIQIVTGIFMAM [COB] — lower, 1.23 ± 0.13
- LGLKLACLGNDGILRLY [YGL100W/SEH1] — higher, 1.86 ± 0.057
- LGLLTPEVVELCQKSPV [FAS2] — higher, 2.11 ± 0.12
- LGLYVGVDDQILATNSL [YJL039C/NUP192] — higher, 2.3 ± 0.11
- LGTIESAQAETEALLLE [DIS3] — higher, 3.18 ± 0.097
- LGVASFHGTSTKANDKN [FAS2] — higher, 3.11 ± 0.075
- LGYKAKQGFVIYRVRVR [RPL15A] — higher, 2.06 ± 0.15
- LGYKDTSVIQDLSEKIL [BRR2] — higher, 2.81 ± 0.063
- LHKLQRMRLRALETENM [GRR1] — lower, 1.47 ± 0.077
- LHQHVVLKCLKSLESQR [RPC34] — higher, 2.41 ± 0.095
- LHQRTHKQVYPLRMETI [DSN1] — higher, 2.44 ± 0.048
- LHVVITLLREVVFTRLV [CSN12] — lower, 1.14 ± 0.14
- LIAEESEDDSESGKVFI [RPB2] — higher, 3.48 ± 0.29
- LIDSLPGVDVSAEEQLR [SRB7] — higher, 1.96 ± 0.068
- LIEFQPSQGVHYKVPTD [MED6] — higher, 2.93 ± 0.062
- LIGCIPYSKNAVEQLAG [YDL088C/ASM4] — higher, 2.94 ± 0.088
- LIIDEIHLLHDDRGPVL [BRR2] — higher, 3.23 ± 0.046
- LIIDGFKSYATRTVITD [SMC2] — higher, 2.99 ± 0.071
- LIKAKNFLVFQGDVEQI [SMC1] — higher, 2.41 ± 0.17
- LIKFVDLSRNGRNGSNG [NUT1] — higher, 3.15 ± 0.068
- LILAGQVKVKGQLGEMA [YCS4] — higher, 3.12 ± 0.069
- LILIPGETMWVPIKSSK [RPN13] — higher, 2.61 ± 0.057
- LIPTIFRYITTWENEFL [PRP8] — within error, 1.75 ± 0.054
- LIQEHDSRKNREQSSND [BRN1] — higher, 3.19 ± 0.081
- LIQSTEFPSITSSVILG [YOR098C/NUP1] — higher, 2.11 ± 0.13
